Reference: patent US20180095078

Assays:
[1] = molecular target: Hepatitis B surface antigen (HBsAg) (Hepatitis B virus) (UniProt P03138); test: pulldown; conditions: magnetic bead pulldown with q-PCR; BD buffer, room temperature
[2] = molecular target: HCV NS3 protein (Hepatitis C virus) (UniProt P27958); test: pulldown; conditions: magnetic bead pulldown with q-PCR; BD buffer, room temperature
HCV NS3 protein (Hepatitis C virus), sequence (P27958 1027-1657): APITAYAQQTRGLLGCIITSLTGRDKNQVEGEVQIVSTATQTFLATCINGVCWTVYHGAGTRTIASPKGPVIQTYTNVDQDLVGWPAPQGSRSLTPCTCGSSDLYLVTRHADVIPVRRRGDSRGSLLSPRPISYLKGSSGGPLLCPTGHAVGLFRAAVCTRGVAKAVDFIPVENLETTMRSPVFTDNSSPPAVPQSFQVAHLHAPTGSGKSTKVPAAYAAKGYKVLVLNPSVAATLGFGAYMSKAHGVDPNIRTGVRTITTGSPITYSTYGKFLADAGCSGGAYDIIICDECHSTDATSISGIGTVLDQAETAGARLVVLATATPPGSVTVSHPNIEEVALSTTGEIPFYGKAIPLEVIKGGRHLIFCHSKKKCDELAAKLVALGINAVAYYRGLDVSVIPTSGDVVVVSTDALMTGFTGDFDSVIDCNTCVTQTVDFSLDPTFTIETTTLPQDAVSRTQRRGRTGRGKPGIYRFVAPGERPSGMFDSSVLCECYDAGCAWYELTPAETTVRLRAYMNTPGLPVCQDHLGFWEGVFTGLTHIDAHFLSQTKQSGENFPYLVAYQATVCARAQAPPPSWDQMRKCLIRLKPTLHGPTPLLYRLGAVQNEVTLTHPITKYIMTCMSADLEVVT

Sequence | Kd [1] [nM] | Kd [2] [nM]
AGCAGCACAGAGGTCCCAACCGGAATCTGCACCTCGCGTGCTACCGTGAA [K2-4] | 31.4 | –
AGCAGCACAGAGGTCCCCATGTCCACCTTTCTGTGGCGTGCTACCGTGAA [K3-1] | – | 15.9
AGCAGCACAGAGGTCCTGCATCACGAAGCCTGGCAGCGTGCTACCGTGAA [MP-1] | 28.3 | 23.3
